According to patent US20260008866A1 (published 2026):

B1: Human (ligand)
chain: LFTVTVPKELYIIEHGSNVTLECNFDTGSHVNLGAITASLQKVENDTSPHRERATLLEEQLPLGKASFHIPQVQVRDEGQYQCIIIYGVAWDYKYLTLKVKASYRKINTHILKVPETDEVELTCQATGYPLAEVSWPNVSVPANTSHSRTPEGLYQVTSVLRLKPPPGRNFSCVFWNTHVRELTLASIDLQSQMEPRTHPT
B2: Cyno (Fc fusion)
chain: LFTVTVPKELYIIEHGSNATLECNFDTGSHVNLGAITASLQKVENDTSPHRERATLLEEQLSLGKALFHIPQVQVRDEGQYQCIIIYGVAWDYKYLTLKVKASYRKINTHILKVPETDEVELTCQATGYPLAEVSWPNISVPANTSHSRTPEGLYQVTSVLRLKPHPGRNFSCVFWNAQVRELTLASIDLQSQIEPRTHP

Columns and labels:
Test in all cases: ForteBio Octet (BLI)
20809 = molecular target: 20809
20807 = molecular target: 20807
20817 = molecular target: 20817
20814 = molecular target: 20814
20812 = molecular target: 20812

Binder | Kd 20809 [nM] | Kd 20807 [nM] | Kd 20817 [nM] | Kd 20814 [nM] | Kd 20812 [nM]
B1 | 1.53 | 0.58 | 0.347 | 0.325 | 
B2 | 0.253 | 0.25 | 0.283 | 0.31 | 0.312
